B1: WT PD1 (receptor)
chain: MASDSPDRPWNPPTFSPALLVVTEGDNATFTCSFSNTSESFVLNWYRMSPSNQTDKLAAFPEDRSQPGQDARFRVTQLPNGRDFHMSVVRARRNDSGTYLCGAISLAPKAQIKESLRAELRVTERRALEHHHHHH
notes: Soluble monomeric protein made in bacteria with a C-terminal 6xHis tag and detected with anti-His antibody; also called WT PD1 decoy; WT PD-1 decoy
B2: Q133K (receptor)
chain: MASDSPDRPWNPPTFSPALLVVTEGDNATFTCSFSNTSESFVLNWYRMSPSNQTDKLAAFPEDRSQPGQDARFRVTQLPNGRDFHMSVVRARRNDSGTYLCGAISLAPKAKIKESLRAELRVTERRALEHHHHHH
notes: PD1 decoy variant, bacterial, C-terminal 6xHis
B3: B2 4XB (receptor)
chain: MASDSPDRPWNPPTFSPALLVVTEGDNATFTCSFSNTSESFVLNWYRDSPSNQDDRLAAFPEDRSQPGQDARFRVTQLPNGRDFHMSVVRARRNDSGTYLCGAISLAPKAKIKESLRAELRVTERRALEHHHHHH
notes: as for B2
B4: K_78R (receptor)
chain: MASDSPDRPWNPPTFSPALLVVTEGDNATFTCSFSNTSESFVLNWYRMSPSNQTDRLAAFPEDRSQPGQDARFRVTQLPNGRDFHMSVVRARRNDSGTYLCGAISLAPKAQIKESLRAELRVTERRALEHHHHHH
notes: as for B2
B5: T_76D (receptor)
chain: MASDSPDRPWNPPTFSPALLVVTEGDNATFTCSFSNTSESFVLNWYRMSPSNQDDKLAAFPEDRSQPGQDARFRVTQLPNGRDFHMSVVRARRNDSGTYLCGAISLAPKAQIKESLRAELRVTERRALEHHHHHH
notes: as for B2
B6: Core_W (receptor)
chain: MASDSPDRPWNPPTFSPALLVVTEGDNATFTCSFSNTSESFVLNWYRESPSNQDDRLAAFPEDRSQPGQDARFRVTQLPNGRDFHMSVVRARRNDSGTYECGAISLAPKWKIKESLRAELRVTERRALEHHHHHH
notes: as for B2
B7: 6XC (receptor)
chain: MASDSPDRPWNPPTFSPALLVVTEGDNATFTCSFSNTSESFVLNWYRESPSNQVDRLAAFPEDRSQPGQDARFRVTQLPNGRDFHMSVVRARRNDSGTYICGAISLAPKWKIKESLRAELRVTERRALEHHHHHH
notes: as for B2
B8: 5XD (receptor)
chain: MASDSPDRPWNPPTFSPALLVVTEGDNATFTCSFSNTSESFVLNWYRESPSNQVDRLAAFPEDRSQPGQDARFRVTQLPNGRDFHMSVVRARRNDSGTYFCGAISLAPKAKIKESLRAELRVTERRALEHHHHHH
notes: as for B2
B9: Core L (receptor)
chain: MASDSPDRPWNPPTFSPALLVVTEGDNATFTCSFSNTSESFVLNWYRESPSNQDDRLAAFPEDRSQPGQDARFRVTQLPNGRDFHMSVVRARRNDSGTYECGAISLAPKLKIKESLRAELRVTERRALEHHHHHH
notes: as for B2
B10: PD1_6XD (with 6xHis) (receptor)
chain: MASDSPDRPWNPPTFSPALLVVTEGDNATFTCSFSNTSESFVLNWYRESPSNQVDRLAAFPEDRSQPGQDARFRVTQLPNGRDFHMSVVRARRNDSGTYFCGAISLAPKWKIKESLRAELRVTERRALEHHHHHH
notes: Soluble monomeric, bacterial production
B11: PD1_4XMUT (with 6xHis) (receptor)
chain: MASDSPDRPWNPPTFSPALLVVTEGDNATFTCSFSNTSESFVLNWYRESPSNQDDRLAAFPEDRSQPGQDARFRVTQLPNGRDFHMSVVRARRNDSGTYFCGAISLAPKAKIKESLRAELRVTERRALEHHHHHH
notes: as for B10
B12: L122E (receptor)
chain: MASDSPDRPWNPPTFSPALLVVTEGDNATFTCSFSNTSESFVLNWYRMSPSNQTDKLAAFPEDRSQPGQDARFRVTQLPNGRDFHMSVVRARRNDSGTYECGAISLAPKAQIKESLRAELRVTERRALEHHHHHH
notes: as for B2
B13: Core A (receptor)
chain: MASDSPDRPWNPPTFSPALLVVTEGDNATFTCSFSNTSESFVLNWYRESPSNQDDRLAAFPEDRSQPGQDARFRVTQLPNGRDFHMSVVRARRNDSGTYECGAISLAPKAKIKESLRAELRVTERRALEHHHHHH
notes: as for B2
B14: PD1_6XDM (with 6xHis) (receptor)
chain: MASDSPDRPWNPPTFSPALLVVTEGDNATFTCSFSNTSESFVLNWYRMSPSNQVDRLAAFPEDRSQPGQDARFRVTQLPNGRDFHMSVVRARRNDSGTYFCGAISLAPKWKIKESLRAELRVTERRALEHHHHHH
notes: as for B10
B15: X1 4XMut (receptor)
chain: MASDSPDRPWNPPTFSPALLVVTEGDNATFTCSFSNTSESFVLNWYRESPSNQDDRLAAFPEDRSQPGQDARFRVTQLPNGRDFHMSVVRARRNDSGTYLCGAISLAPKAKIKESLRAELRVTERRALEHHHHHH
notes: as for B2
B16: A132W (receptor)
chain: MASDSPDRPWNPPTFSPALLVVTEGDNATFTCSFSNTSESFVLNWYRMSPSNQTDKLAAFPEDRSQPGQDARFRVTQLPNGRDFHMSVVRARRNDSGTYLCGAISLAPKWQIKESLRAELRVTERRALEHHHHHH
notes: as for B2
B17: PD1_4XMUT_M70 (with 6xHis) (receptor)
chain: MASDSPDRPWNPPTFSPALLVVTEGDNATFTCSFSNTSESFVLNWYRMSPSNQDDRLAAFPEDRSQPGQDARFRVTQLPNGRDFHMSVVRARRNDSGTYFCGAISLAPKAKIKESLRAELRVTERRALEHHHHHH
B18: M70E (receptor)
chain: MASDSPDRPWNPPTFSPALLVVTEGDNATFTCSFSNTSESFVLNWYRESPSNQTDKLAAFPEDRSQPGQDARFRVTQLPNGRDFHMSVVRARRNDSGTYLCGAISLAPKAQIKESLRAELRVTERRALEHHHHHH
notes: as for B2
B19: 6XB (receptor)
chain: MASDSPDRPWNPPTFSPALLVVTEGDNATFTCSFSNTSESFVLNWYRESPSNQDDRLAAFPEDRSQPGQDARFRVTQLPNGRDFHMSVVRARRNDSGTYICGAISLAPKWKIKESLRAELRVTERRALEHHHHHH
notes: as for B2

molecular target: T1, human PDL1 protein (human, UniProt Q9NZQ7 19-238, limits assumed); test: titration ELISA, soluble His-tagged PD1 decoy on plate-coated human PD-L1, anti-His detection
T1 construct: also called plate-captured PD-L1
T1 sequence (Q9NZQ7 19-238 limits assumed): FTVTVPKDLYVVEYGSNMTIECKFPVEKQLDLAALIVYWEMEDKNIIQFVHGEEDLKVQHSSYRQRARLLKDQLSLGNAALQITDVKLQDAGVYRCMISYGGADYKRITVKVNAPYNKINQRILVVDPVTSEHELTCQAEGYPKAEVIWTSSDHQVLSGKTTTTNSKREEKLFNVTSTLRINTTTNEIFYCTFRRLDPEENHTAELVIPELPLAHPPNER

First: B1
Second: B2
The “Affinity to PD-L1 (relative to WT PD1)” value of the first is lower: 1 fold relative to WT PD1 for the first, 3 fold relative to WT PD1 for the second.

Compared with B3, B4 is lower in “Affinity to PD-L1 (relative to WT PD1)” value: 7.3 fold relative to WT PD1 for the first, 1.4 fold relative to WT PD1 for the second.

Compared with B5, B6 is higher in “Affinity to PD-L1 (relative to WT PD1)” value: 8.3 fold relative to WT PD1 for the first, 1020 fold relative to WT PD1 for the second.

B7 and B8 are the same in “Affinity to PD-L1 (relative to WT PD1)” value: 1.1 fold relative to WT PD1 for the first, 1.1 fold relative to WT PD1 for the second.

First: B9
Second: B10
The “Affinity to PD-L1 (relative to WT PD1)” value of the first is lower: 1.7 fold relative to WT PD1 for the first, 7.2 fold relative to WT PD1 for the second.

First: B11
Second: B12
The “Affinity to PD-L1 (relative to WT PD1)” value of the first is higher: 5 fold relative to WT PD1 for the first, 3 fold relative to WT PD1 for the second.

First: B13
Second: B14
The “Affinity to PD-L1 (relative to WT PD1)” value of the first is lower: 7.1 fold relative to WT PD1 for the first, 7.5 fold relative to WT PD1 for the second.

First: B15
Second: B16
The “Affinity to PD-L1 (relative to WT PD1)” value of the first is higher: 5.6 fold relative to WT PD1 for the first, 3 fold relative to WT PD1 for the second.

First: B17
Second: B18
The “Affinity to PD-L1 (relative to WT PD1)” value of the first is higher: 10 fold relative to WT PD1 for the first, 5.2 fold relative to WT PD1 for the second.

In the case of B19, the “Affinity to PD-L1 (relative to WT PD1)” value is reported as 1.3 fold relative to WT PD1.
